The values below come from US20200277373A1, “ANTI-TREM2 ANTIBODIES AND METHODS OF USE THEREOF” (Denali Therapeutics Inc., priority 2017, published 2020).

The test system of one assay is human macrophages. Nature of the assay: Signaling pathway Alpha-LISA (pSYK, pERK1/2, pGSK3-beta, pAKT) in human macrophages. The note with it: 15 minutes. The class given is cell-based. As to the method:
Anti-TREM2 antibodies were characterized for activation of several signaling pathways, SYK, ERK1/2, AKT and GSK3-beta. Human macrophages differentiated from peripheral monocytes were plated in 96-well plates at a density of 100,000 cell/well. The assay was tested in three conditions (0%, 0.5%, and 10% FBS in the media) for 3 hours. Cells were stimulated with the antibody RS9.F6, 24B4.A1, 8A11.B1, 3D3.A1, 54C2.A1, isotype control IgG2ak, rat anti-TREM2 from R&D, isotype control rat IgG2b, or no treatment (NT) for 15 minutes. The cell lysates were measured for p-Y525/526-SYK, p-T202/Y204-ERK1/2, p-S9-GSK3-beta, and p-S473-AKT using Alpha-LISA kits (Perkin Elmer). […] The antibodies stimulated p-GSK signal moderately (FIG. 6C).
For orientation: Bead proximity is the source of the signal in Alpha formats.

For assay [1], the target named is T1, TREM2 (Homo sapiens, UniProt Q9NZC2).
T1 construct: macrophage cells that endogenously express TREM2; endogenous in cells; host or cells: primary human monocyte-derived macrophages from donor blood
T1 sequence (Q9NZC2 19-230): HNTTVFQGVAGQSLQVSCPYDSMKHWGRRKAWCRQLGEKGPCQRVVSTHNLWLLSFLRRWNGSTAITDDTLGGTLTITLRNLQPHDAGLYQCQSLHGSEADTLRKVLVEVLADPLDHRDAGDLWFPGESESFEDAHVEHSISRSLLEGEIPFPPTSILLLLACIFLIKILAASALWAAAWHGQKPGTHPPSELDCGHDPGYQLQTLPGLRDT
Nature of the assay: TREM2 PAM/pSyk assay on human macrophages. The class given is cell-based. Particulars: for effect on lipid ligand activation of TREM2 (in words): FIG. 9B, human macrophages; for Slope + Liposome: pSyk, 10 nM antibody with 0, EC20, EC50, EC80 PS/PC liposomes, liposome-alone signal subtracted. As to the method:
Human macrophages were differentiated from donor blood using a human monocyte enrichment cocktail (Stem Cell Technologies) and culturing monocytes with human mCSF for five days in macrophage media (RPMI+10% Hyclone FBS+Glutamax+Pen/Strep+non-essential amino acids+sodium pyruvate). On the fifth day, the human macrophages were scraped from the flasks and were re-plated at 100,000 cells/well on a 96-well poly-D-lysine-coated plate in the macrophage media (without mCSF). The cells were incubated for 24 hours to adhere, then the media was removed.
Antibodies pre-mixed with lipid vesicles comprised of 70% DOPC and 30% POPS (made according to the procedure for making vesicles described above) diluted in HBSS were immediately added to the cells, and allowed to incubate for 5 minutes at 37° C. The liposome/antibody solution was removed, and 35 μL lysis buffer (Cell Signaling Technologies, CST) was added using the liquid handler. The lysate was then incubated at 4° C. for 30 minutes, then either frozen at −80° C. or immediately carried forward to a pSyk AlphaLISA assay as described above. […] The results of the assay are shown in FIG. 9B and in Table 8 below.

For a further assay, the target named is T2, soluble TREM2 (sTREM2) (Homo sapiens, UniProt Q9NZC2).
T2 construct: expressed in transfected cells
Put plainly: Soluble TREM2 (TREM2 shedding) assay in HEK293 TREM2/DAP12 cells. It counts as cell-based. Set-up: key to STREM2: NC = no change; −− = reduced sTREM2; ++ = increased sTREM2. Particulars: change in sTREM2 levels. The protocol:
HEK293 cells stably expressing human TREM2 and DAP12 were plated onto 96-well plates pre-coated with poly-D-lysine 4-16 hours prior to antibody treatment. Antibody supernatants or control antibodies were diluted into fresh complete media and added onto cells in triplicate. Cells were incubated with antibody containing media for 18 hours prior to removal of the cell supernatant for assay by TREM2 ELISA. Samples and standards were diluted 1:10 into blocking buffer (3% BSA/TBST) in the assay plate. Briefly, MSD small spot streptavidin plates were coated with biotinylated anti-hTREM2 polyclonal antibody (R&D Systems) overnight at 4° C. or 1 hour at room temperature. Plates were then blocked overnight at 4° C., or 1 hour at room temperature, with blocking buffer, 3% BSA/TBST. Plates were washed three times with TBST in a Biotek plate washer (used for all washes) prior to addition of diluent (blocking buffer) and denatured supernatants from cell culture. A TREM2-His protein diluted in 3% BSA/TBST was used as a standard for absolute quantification. Following 1 hour incubation at room temperature, plates were washed with TBST. The primary detection antibody, sulfo-tagged goat anti-human TREM2 (R&D Systems), diluted in 3% BSA/TBST was added and incubated for 1 hour at room temperature. After washing with TBST, MSD plates were developed using 2×MSD read buffer T, followed by detection using an MSD Sector plate reader. MSD values were converted to absolute quantities of sTREM2 by fitting a standard curve using Prism 7.0 software (Graphpad). Modulation of TREM2 shedding was represented as a ratio to cells cultured with no specific TREM2 antibody in the media.

Assay [2] deals with T3, TREM2 (Homo sapiens, UniProt Q9NZC2).
T3 construct: expressed in transfected cells
Put plainly: FACS binning on human TREM2-HEK cells (competition with R&D antibody). Particulars: epitope bin, 100 nM antibody. The class given is binding. The protocol: HEK293 overexpressing human TREM2 (H6) were harvested by 0.05% trypsin and incubated at 37° C. incubator for 2 hours for surface TREM2 recovery. After incubation, cells were washed with 1×PBS and FACS buffer (PBS+0.5% BSA) with human Trustain FcX solution (Biolegend, Cat #422302) was added at a density of 10^6/mL. Cells were seeded at 100,000 cells per well in a 96-well round-bottom and incubated 20 minutes at room temperature. After incubation, anti-TREM2 antibodies (100 nM) were added to the cells and the cells were incubated for 45 minutes on ice. After incubation, rat anti-h/mTREM2-APC antibody (1:100, R&D, Cat # FAB17291A) was added to the cells, and the cells were incubated for 30 minutes on ice. After incubation, cells were washed with FACS buffer three times and resuspended in 10 μL FACS buffer, then analyzed by flow cytometry (BD FACSCanto II, San Jose, Calif.). 20,000 events were obtained for each sample. The ability to compete with R&D antibody was determined by MFI analysis compared to isotype or buffer control wells.
T3 sequence (O43914 22-113 partner, one chain of several): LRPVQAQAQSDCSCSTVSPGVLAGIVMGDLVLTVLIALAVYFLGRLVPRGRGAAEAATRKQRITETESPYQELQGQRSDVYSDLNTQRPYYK

Another assay deals with T4, hTREM2 (Homo sapiens, UniProt Q9NZC2).
T4 construct: The ecto domain (residues 19-172) of TREM2 (UniProtKB—Q9NZC2); secretion signal of mouse Ig kappa chain V-III (P01661 aa 1-20) (N); made in house; host or cells: Expi293F
T4 sequence (Q9NZC2 19-172): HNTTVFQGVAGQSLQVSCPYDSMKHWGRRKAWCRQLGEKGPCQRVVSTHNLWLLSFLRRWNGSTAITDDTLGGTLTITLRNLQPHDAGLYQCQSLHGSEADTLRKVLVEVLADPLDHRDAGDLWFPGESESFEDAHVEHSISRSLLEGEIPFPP
Put plainly: Octet binning (competition with R&D antibody on biotinylated TREM2-His). It counts as binding. The note with it: epitope bin, 100 nM. The protocol: Competition with R&D antibody was done by Octet Red using biotinylated human Trem2-His protein generated in house. Biotinylated human TREM2-His protein was captured on a streptavidin tip, and the tip was then incubated in either 100 nM of R&D Ab or buffer for 3 minutes, followed by incubation for 3 minutes in 100 nM of testing hybridoma. The difference of hybridoma binding curve with or without pre-binding to R&D antibody was analyzed to determine the epitope.
In general terms: In BLI a coated tip is dipped into the sample, and binding shifts an interference pattern.

T2 sequence (O43914 22-113 partner, one chain of several): as the sequence (O43914 22-113 partner, one chain of several) above

B1: RS9.F6: anti-TREM2 antibody clone; VH SEQ ID NO:24, VL SEQ ID NO:35 (antibody, V domains shown)
VH: QVQLQQPGAELVKPGASVKLSCKASGYTFTSYWMHWVKQSPGRGLEWIGRSDPTTGGTNYNEKFKTKATLTVDKPSSTAYMQLSSLTSDDSAVYYCVRTSGTGDYWGQGTSLTVSS
VL: DVVMTQTPLSLPVSLGDQASISCRSSQSLVHNNGNTFLHWYLQKPGQSPKLLIYKVSNRFSGVPDRFSGSGSGTDFTLKISRVEAEDLGVYFCSQTTHVPPTFGGGTKLEIK
For B1, in the assay on human macrophages, the p-SYK signal result is recorded as “robust” and the pERK1/2 signal result is reported as “robust”. In the assay with TREM2 [1], the “effect on lipid ligand activation of TREM2 (in words)” value was “at least an additive effect” and the “Slope + Liposome” value was 878. Moreover, the STREM2 result in the assay with soluble TREM2 (sTREM2) is reported as “NC”.

B2: 21D11: anti-TREM2 antibody clone; VH SEQ ID NO:14, VL SEQ ID NO:25 (antibody, V domains shown)
VH: QVQLQQSGAELARPGASVKLSCKASGYTFTSYWIQWVKQRPGQGLEWIGTIYPGDGDARYTQKFKGKATLTADKSSSTTYMQLNSLASEDSAVYYCARNGITTAGYYAMDYWGQGTSVTVSS
VL: DIQMTQSPASLSVSVGETVTITCRASENIYSNLAWYQQKQGRSPQLLVYAATNLADGVPSRFSGSGSGTQYSLKINSLQSEDFGYYYCQHFWGTPYTFGGGTKVEIK
Regarding B2, the STREM2 result with soluble TREM2 (sTREM2) is “NC”. In addition, the “Bin by FACS” value with TREM2 [2] is listed as 1-2. Besides, the “Bin by Octet” value in the assay with hTREM2 is reported as 1-2.

B3: 3D3.A1: anti-TREM2 antibody clone; VH SEQ ID NO:18, VL SEQ ID NO:29 (antibody, V domains shown)
VH: EVQLQQSGPELVKPGASVKISCKTSGYTLSEYTMHWVIQSHGKSLEWIGGVIPNSGGTSYNQKFRDKASLTVDKSSSTAYLELRSLTSEDSAVYYCARGDDSYRRGYALDYWGQGTSVTVSS
VL: DIVMSQSPSSLAVSVGEKVTMSCKSSQSLLYSSNQKSYLAWYQQKPGQSPKLLIYWASTRESGVPDRFRGSGSGTDFTLTISSVKAEDLAVYYCQQYFSYPPTFGGGTKLEIK
Take B3: in the assay on human macrophages, the p-SYK signal result is “robust” and the pERK1/2 signal entry is listed as “robust”. In addition, in the assay with TREM2 [1], the “effect on lipid ligand activation of TREM2 (in words)” value is listed as “at least an additive effect” and the “Slope + Liposome” value is given as 94. The STREM2 result with soluble TREM2 (sTREM2) is listed as “NC”. In addition, the “Bin by FACS” value in the assay with TREM2 [2] is 3. Further, in the assay with hTREM2, the “Bin by Octet” value is on record as 3.
